Patent publication US20210401961A1

Biological target: HB-EGF receptor (UniProt Q99075)
Assay: cell-based or functional assay

Sequence of UniProt Q99075 (Q99075 63-148 limits assumed): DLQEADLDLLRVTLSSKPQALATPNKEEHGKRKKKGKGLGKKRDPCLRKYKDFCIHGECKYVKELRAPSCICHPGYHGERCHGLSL

CRM197-Alexa488 (from UniProt P00587 26-560)
labelling of OV90 tumor cells with CRM197-Alexa488 after 24 hours (flow cytometry, 10 µg/mL): 98.2% | percentage of CRM197-Alexa488 uptake by OV90 tumor cells after 4 hours (flow cytometry, 10 µg/mL): 82% | percentage of OV90 tumor cells with CRM197-Alexa488 signal after 4 hours with trypan blue quenching (intracellular): 72.7% | percentage of OV90 tumor cells with CRM197-Alexa488 signal after 24 hours with trypan blue quenching (intracellular): 97.6%
